These results are taken from patent publication US20050031645, “Vaccine compositions” (Advanced Microbial Solutions Corporation, published 2005).

The data set deals with T1, DtxR (Corynebacterium diphtheriae, UniProt H2I233 SEQ:1-226).
T1 sequence: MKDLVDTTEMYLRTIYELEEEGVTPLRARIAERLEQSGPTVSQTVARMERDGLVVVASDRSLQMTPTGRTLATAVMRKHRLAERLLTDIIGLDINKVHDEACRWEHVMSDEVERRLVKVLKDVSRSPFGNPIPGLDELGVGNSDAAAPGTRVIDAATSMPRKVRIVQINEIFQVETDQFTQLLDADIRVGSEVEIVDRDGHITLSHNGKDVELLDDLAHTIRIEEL
Nature of the data set: EMSA; competed by unlabeled tox DNA, not by nonspecific DNA; 10 mM Tris-OAc pH 7.4, 50 mM KCl, 1 mM EDTA, calf thymus DNA. The following applies: chain copies: 2 (inferred); label: 32P end.

B1: toxO (tox operator) 100 bp fragment (dsDNA)
DNA 1: ATAATTAGGATAGCTTTACCTAATTAT
DNA 2: ATAATTAGGTAAAGCTATCCTAATTAT
Consider B1, for which the binding result is reported as “binds”.
